Source: PMC3217464 (Molecular cell, 2009)

B1: His-tagged PGC-1α (334–797) (domain or fragment, UniProt O70343 334-797, looked up)
chain: ECSGTQGSHSTKKGPEQSELYAQLSKSSGLSRGHEERKTKRPSLRLFGDHDYCQSLNSKTDILINISQELQDSRQLDFKDASCDWQGHICSSTDSGQCYLRETLEASKQVSPCSTRKQLQDQEIRAELNKHFGHPCQAVFDDKSDKTSELRDGDFSNEQFSKLPVFINSGLAMDGLFDDSEDESDKLSYPWDGTQPYSLFDVSPSCSSFNSPCRDSVSPPKSLFSQRPQRMRSRSRSFSRHRSCSRSPYSRSRSRSPGSRSSSRSCYYYESSHYRHRTHRNSPLYVRSRSRSPYSRRPRYDSYEAYEHERLKRDEYRKEHEKRESERAKQRERQKQKAIEERRVIYVGKIRPDTTRTELRDRFEVFGEIEECTVNLRDDGDSYGFITYRYTCDAFAALENGYTLRRSNETDFELYFCGRKQFFKSNYADLDTNSDDFDPASTKSKYDSLDFDSLLKEAQRSLRR
B2: His-tagged PGC-1α (501–797) (domain or fragment, UniProt O70343 501-797, looked up)
chain: NSGLAMDGLFDDSEDESDKLSYPWDGTQPYSLFDVSPSCSSFNSPCRDSVSPPKSLFSQRPQRMRSRSRSFSRHRSCSRSPYSRSRSRSPGSRSSSRSCYYYESSHYRHRTHRNSPLYVRSRSRSPYSRRPRYDSYEAYEHERLKRDEYRKEHEKRESERAKQRERQKQKAIEERRVIYVGKIRPDTTRTELRDRFEVFGEIEECTVNLRDDGDSYGFITYRYTCDAFAALENGYTLRRSNETDFELYFCGRKQFFKSNYADLDTNSDDFDPASTKSKYDSLDFDSLLKEAQRSLRR
B3: His-tagged full length PGC-1α (natural protein, UniProt O70343 1-797, looked up)
chain: MAWDMCSQDSVWSDIECAALVGEDQPLCPDLPELDLSELDVNDLDTDSFLGGLKWCSDQSEIISNQYNNEPANIFEKIDEENEANLLAVLTETLDSLPVDEDGLPSFDALTDGAVTTDNEASPSSMPDGTPPPQEAEEPSLLKKLLLAPANTQLSYNECSGLSTQNHAANHTHRIRTNPAIVKTENSWSNKAKSICQQQKPQRRPCSELLKYLTTNDDPPHTKPTENRNSSRDKCASKKKSHTQPQSQHAQAKPTTLSLPLTPESPNDPKGSPFENKTIERTLSVELSGTAGLTPPTTPPHKANQDNPFKASPKLKPSCKTVVPPPTKRARYSECSGTQGSHSTKKGPEQSELYAQLSKSSGLSRGHEERKTKRPSLRLFGDHDYCQSLNSKTDILINISQELQDSRQLDFKDASCDWQGHICSSTDSGQCYLRETLEASKQVSPCSTRKQLQDQEIRAELNKHFGHPCQAVFDDKSDKTSELRDGDFSNEQFSKLPVFINSGLAMDGLFDDSEDESDKLSYPWDGTQPYSLFDVSPSCSSFNSPCRDSVSPPKSLFSQRPQRMRSRSRSFSRHRSCSRSPYSRSRSRSPGSRSSSRSCYYYESSHYRHRTHRNSPLYVRSRSRSPYSRRPRYDSYEAYEHERLKRDEYRKEHEKRESERAKQRERQKQKAIEERRVIYVGKIRPDTTRTELRDRFEVFGEIEECTVNLRDDGDSYGFITYRYTCDAFAALENGYTLRRSNETDFELYFCGRKQFFKSNYADLDTNSDDFDPASTKSKYDSLDFDSLLKEAQRSLRR

biological target: Flag-tagged full length MED1 (UniProt Q15648 1-1581); experiment: immobilized-template protein recruitment assay
Sequence (Q15648 whole entry): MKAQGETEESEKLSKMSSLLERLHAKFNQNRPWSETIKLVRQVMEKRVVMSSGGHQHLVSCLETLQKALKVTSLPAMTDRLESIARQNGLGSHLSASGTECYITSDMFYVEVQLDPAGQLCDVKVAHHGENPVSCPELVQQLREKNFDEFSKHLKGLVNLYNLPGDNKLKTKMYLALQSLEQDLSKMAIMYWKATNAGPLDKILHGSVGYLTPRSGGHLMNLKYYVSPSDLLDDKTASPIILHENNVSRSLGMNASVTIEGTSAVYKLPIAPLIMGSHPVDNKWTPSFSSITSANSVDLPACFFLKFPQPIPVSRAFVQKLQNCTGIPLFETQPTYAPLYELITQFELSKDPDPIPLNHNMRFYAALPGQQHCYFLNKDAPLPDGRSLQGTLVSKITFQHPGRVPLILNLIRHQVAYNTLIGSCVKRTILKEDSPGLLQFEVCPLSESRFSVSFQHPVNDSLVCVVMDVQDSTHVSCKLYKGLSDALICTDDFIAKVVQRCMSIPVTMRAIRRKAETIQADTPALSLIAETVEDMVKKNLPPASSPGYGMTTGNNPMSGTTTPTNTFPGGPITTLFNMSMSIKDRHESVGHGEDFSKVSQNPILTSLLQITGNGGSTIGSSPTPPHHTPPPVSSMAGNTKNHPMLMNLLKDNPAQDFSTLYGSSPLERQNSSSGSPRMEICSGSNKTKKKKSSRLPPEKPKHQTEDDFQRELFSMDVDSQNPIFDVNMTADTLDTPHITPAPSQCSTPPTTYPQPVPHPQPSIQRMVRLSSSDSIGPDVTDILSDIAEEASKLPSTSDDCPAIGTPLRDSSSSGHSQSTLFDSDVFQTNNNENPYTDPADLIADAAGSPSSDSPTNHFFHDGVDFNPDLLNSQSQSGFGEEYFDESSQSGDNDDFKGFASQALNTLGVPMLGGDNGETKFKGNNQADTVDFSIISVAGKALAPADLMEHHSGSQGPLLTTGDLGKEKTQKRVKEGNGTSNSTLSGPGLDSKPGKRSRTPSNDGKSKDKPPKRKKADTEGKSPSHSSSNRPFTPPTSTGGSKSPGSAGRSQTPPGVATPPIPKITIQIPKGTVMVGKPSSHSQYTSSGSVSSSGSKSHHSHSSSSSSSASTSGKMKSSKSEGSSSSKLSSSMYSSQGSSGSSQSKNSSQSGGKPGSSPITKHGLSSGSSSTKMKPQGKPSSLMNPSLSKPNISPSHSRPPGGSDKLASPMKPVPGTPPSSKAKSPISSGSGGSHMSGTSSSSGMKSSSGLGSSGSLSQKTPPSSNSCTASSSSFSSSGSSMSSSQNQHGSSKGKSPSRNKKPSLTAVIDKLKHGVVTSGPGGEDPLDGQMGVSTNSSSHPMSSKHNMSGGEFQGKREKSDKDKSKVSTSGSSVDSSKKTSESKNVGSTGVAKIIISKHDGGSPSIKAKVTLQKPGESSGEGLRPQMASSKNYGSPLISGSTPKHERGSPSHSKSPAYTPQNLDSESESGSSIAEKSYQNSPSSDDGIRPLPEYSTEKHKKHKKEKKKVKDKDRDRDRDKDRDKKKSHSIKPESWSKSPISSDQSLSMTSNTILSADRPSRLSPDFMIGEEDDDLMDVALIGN

Binding result, binds:
B1, B2, B3
